Experimental findings from article PMC3390401, “Phosphorylation-Dependent Interactions between Crb2 and Chk1 Are Essential for DNA Damage Checkpoint” (PLoS Genetics, 2012) are described below.

Non-standard residues stand in square brackets, D forms with d. No end group written: not given here. pS = N[C@@H](COP(=O)(O)O)C(=O)O A value given as a limit tells only on which side of the number the result lay.

For experiment [1], the target named is Crb2(67–85)pT73pS80 peptide (S. pombe) (UniProt P87074). In words: pull-down; Eluted Chk1-YFH incubated with 2 µg biotin-labeled peptide at 4°C for 2 h, peptides captured on streptavidin Dynabeads M-280, washed with lysis buffer (50 mM Hepes pH 7.5, 100 mM NaCl, 1 mM EDTA, 10% glycerol, 0.05% NP-40); eluates and input on 4%–20% SDS-PAGE, Coomassie staining.
Experiment [2] addresses Crb2(67–85)pS80 peptide (S. pombe) (UniProt P87074). Nature of the experiment: pull-down; Same peptide pull-down repeated; eluates and serial dilutions of Chk1-YFH input examined by immunoblotting with an anti-GFP antibody.
In experiment [3] the target is Crb2(67–85)pT73pS80 peptide (S. pombe) (UniProt P87074). The description is as above.
The target in experiment [4] is Crb2(67–85)pT73 peptide (S. pombe) (UniProt P87074). Described as above.
Experiment [5] addresses Crb2(67–85) peptide, unphosphorylated (S. pombe) (UniProt P87074). The experiment is described as above.
For experiment [6], the target named is Chk1 (UniProt P34208). In words: biotin-peptide streptavidin pull-down, Coomassie or immunoblot. Background: A western blot detects proteins with antibodies after separation by electrophoresis.
Experiment [7] concerns the target T1, His-GST-Crb2(521–778) (S. pombe, UniProt P87074 521-778).
T1 construct: Crb2, S. pombe, residues 521-778 (the BRCT domains); also called BRCTs in Crb2; source: E. coli, purified with Ni-NTA beads; not shown: His, N-terminal, kept; GST, N-terminal, kept
T1 sequence (looked up): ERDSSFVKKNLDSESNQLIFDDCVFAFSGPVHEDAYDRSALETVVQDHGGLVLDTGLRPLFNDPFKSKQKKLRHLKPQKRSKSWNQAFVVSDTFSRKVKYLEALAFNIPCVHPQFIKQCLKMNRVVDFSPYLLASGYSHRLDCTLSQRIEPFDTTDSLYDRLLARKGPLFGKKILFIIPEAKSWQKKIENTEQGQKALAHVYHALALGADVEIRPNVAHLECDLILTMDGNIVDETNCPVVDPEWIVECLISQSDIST
In words: pull-down; His-GST-Crb2(521–778) incubated with H2A peptides, peptides pulled down by streptavidin Dynabeads, eluted by boiling in SDS loading buffer; 4%–20% SDS-PAGE, Coomassie staining. As to conditions: both partners purified.

As for “YFP-Flag-His6 (YFH)-tagged Chk1 (from UniProt P34208 1-496) (enzyme)”, the percent of input pulled down (% of the input) was over 5 in experiment [1]; 1 in experiment [2]; 7 in experiment [3]; 7 in experiment [4]; under 0.08 in experiment [5].
As for “Crb2 67-85 (from UniProt P87074) pT73pS80 peptide”, the “other: share of Chk1 input pulled down” value in experiment [6] (reference: pS80 peptide, sites T73) was “stronger; reference about 1%”; in experiment [6] (reference: pT73 peptide, sites S80) it was “same; reference about 7%”.
As for “Crb2 67-85 (from UniProt P87074) pS80 peptide”, the “other: share of Chk1 input pulled down” value in experiment [6] (reference: unphosphorylated peptide, sites S80) is listed as “gained; reference lower than 0.08%”.
Regarding “Crb2 67-85 (from UniProt P87074) pT73 peptide”, in experiment [6] (reference: unphosphorylated peptide, sites T73), the “other: share of Chk1 input pulled down” value was “gained; reference lower than 0.08%”.

B1: Hta1(120–132-pS129) peptide (peptide, UniProt P04909 120-132, looked up)
peptide: KTSGRTGKP[pS]QEL
notes: Histone H2A Hta1, S. pombe, residues 120-132; also called γH2A peptide; phosphorylated histone H2A peptide
Turning to B1, the binding result in experiment [7] is on record as “binds”.
